# According to patent US20090281024A1 (RAPTOR PHARMACEUTICALS, published 2009):
# T1: RAP d3 (wild-type third domain of the receptor-associated protein) (human, UniProt P30533 235-353)
# T1 construct: range 201-319 (mature RAP numbering); Expressed in E. coli from pET30(+)a; also called wild-type RAP d3; not shown: N-terminal hexahistidine and S-peptide tags of pET30(+)a
# T1 sequence (looked up): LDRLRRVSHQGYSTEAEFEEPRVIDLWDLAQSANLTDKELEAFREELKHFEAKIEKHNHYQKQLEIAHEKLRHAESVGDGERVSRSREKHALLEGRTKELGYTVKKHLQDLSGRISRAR
# B1: MegaRAP1 d3 (designed binder)
# chain: LDRLRRVSHQGYTTEAKFEEPRVIDLWDLAQSANLTDKELEAFREELKYFKAKIEAHNHYQKQLEIAHEELRHAESVGDGERVSRSREKHALLEGRTKELGYTVKKHLQDLSGRISRAR
# notes: range 201-319 (mature RAP numbering); d3 of the variant selected on LRP2 CR89; also called RAPv2A d3; RAP v2A; not shown: N-terminal hexahistidine and S-peptide tags of pET30(+)a
# Molecular target: T1, RAP d3 (wild-type third domain of the …)
# Experiment: solid-phase binding assay: CR protein coated on the plate, d3 ligand at 80 nM, anti-RAP detection, blank-corrected absorbance
# Experimental: (§1) RAP d3, MegaRAP1 d3, VRAP2 d3, MatRAP1d3 and MatRAP2 d3 were each incubated at 80 nM concentrations with LRP1 CR3-5, LRP6 CR12, LRP6 CR23, LRP6 CR1-3, LRP2 CR89, LRP2 CR2728, LRP2 CR3031, LRP2 CR3435, LRP2 CR34-36, VLDLR CR78, VLDLR CR6-8, MAT CR12, MAT CR23 and MAT CR34. Samples were tested twice, in duplicate, and values combined. Means and standard deviations were then calculated. Blank values obtained from wells incubated in the absence of ligand were used to correct absorbance data.
# (§2) Solid phase binding assays—Purified, refolded CR protein (1 μg) was bound to Nunc Maxisorp™ 96-well plates in TBS pH 8 supplemented with 5 mM CaCl₂ (TBSC) overnight at 4° C. Wells were washed with TBSC and then blocked with TBSC containing 2% bovine serum albumin (BSA). RAP ligands were then incubated with the immobilized receptor at a range of concentrations for 2 hours in the above blocking buffer supplemented with 0.05% Tween-20 at room temperature. Control wells contained no added ligand. As an additional control, to determine whether the absence of calcium affected binding, 10 mM EGTA was included in the incubation medium for some samples. Wells were washed with TBSTC and bound ligands detected with polyclonal anti-RAP (BP41/42, 1:1,000, BioMarin). Excess primary antibody was removed and wells washed before incubation with the secondary antibody, HRP-conjugated goat anti rabbit IgG (Bio-Rad). After washing, TMB substrate solutions (Bio-Rad) were added to detect HRP. Color development was stopped with 1N HCl. Absorption at 450 nm was measured with a microplate spectrophotometer (Molecular Devices). Data were plotted and Kd values derived by non-linear regression with the assumption of single-site binding (GraphPad Prism).
# (§3) The apparent dissociation constant for binding of VRAP1d3 to VLDLR CR78 was determined to be […]. We then compared binding of RAP d3, MegaRAP1 d3, VRAP1d3, MatRAP1d3 and MatRAP2 d3, each at a concentration of 80 nM, to fourteen CR pairs or triplets, including LRP1 CR3-5, LRP2 CR89, LRP2 CR2728, LRP2 CR3031, LRP2 CR34-36, LRP2 CR3536, VLDLR CR78, VLDLR CR6-8, LRP6 CR1-3, LRP6 CR12, LRP6 CR23, MAT CR12, MAT CR23 and MAT CR34 (FIG. 7).
row,binding result,Binder
1,no binding (tested: 80 nM),"LRP2 CR3031 (receptor, domain: CR3031; not shown: N-terminal hexahistidine and S-peptide tags of pET30(+)a) not shown"
2,no binding (tested: 80 nM),"LRP2 CR2728 (receptor, human, UniProt P98164 3552-3631, looked up, domain: CR2728; not shown: N-terminal hexahistidine and S-peptide tags of pET30(+)a) FCRLGQFQCSDGNCTSPQTLCNAHQNCPDGSDEDRLLCENHHCDSNEWQCANKRCIPESWQCDTFNDCEDNSDEDSSHCA"

# Molecular target: B1
# Experiment: as above
# Experimental: as §1, §2, §3
row,binding result,Binder
1,no binding (tested: 80 nM),"LRP2 CR3536 (receptor, domain: CR3536; the primers (LRP2CR35F, LRP2CR36R) fit CR3536; not shown: N-terminal hexahistidine and S-peptide tags of pET30(+)a) not shown"
2,no binding (tested: 80 nM),"LRP2 CR3031 (receptor, domain: CR3031; not shown: N-terminal hexahistidine and S-peptide tags of pET30(+)a) not shown"
3,no binding (tested: 80 nM),"LRP2 CR2728 (receptor, human, UniProt P98164 3552-3631, looked up, domain: CR2728; not shown: N-terminal hexahistidine and S-peptide tags of pET30(+)a) FCRLGQFQCSDGNCTSPQTLCNAHQNCPDGSDEDRLLCENHHCDSNEWQCANKRCIPESWQCDTFNDCEDNSDEDSSHCA"

# Molecular target: T2, LRP1 CR3-5 (human)
# T2 construct: range 852-973; also called L1 CR3-5; LRP1 CR3-S [sic]
# Experiment: solid-phase assay, coated CR protein
# Experimental: Wells were washed with TBSTC and bound ligands detected with polyclonal anti-RAP (BP41/42, 1:1,000, BioMarin). Excess primary antibody was removed and wells washed before incubation with the secondary antibody, HRP-conjugated goat anti rabbit IgG (Bio-Rad). After washing, TMB substrate solutions (Bio-Rad) were added to detect HRP. Color development was stopped with 1N HCl. Absorption at 450 nm was measured with a microplate spectrophotometer (Molecular Devices). Data were plotted and Kd values derived by non-linear regression with the assumption of single-site binding (GraphPad Prism).
# Next, the binding of RAP d3 and MegaRAP1 d3 proteins to LRP1 CR3-5 and LRP2 CR89 was assessed. […] In all cases, 10 mM EGTA prevented binding of both RAP d3 and MegaRAP1 d3 to CR proteins. Since calcium was the only divalent metal ion present in the binding buffer, this observation is consistent with both RAP d3 and MegaRAP1 d3 binding to calcium-loaded CR pairs. […] Therefore, wild-type RAP d3 and MegaRAP1 d3 have inverted binding preferences for these two receptor fragments.
# T2 sequence (Q07954 852-973): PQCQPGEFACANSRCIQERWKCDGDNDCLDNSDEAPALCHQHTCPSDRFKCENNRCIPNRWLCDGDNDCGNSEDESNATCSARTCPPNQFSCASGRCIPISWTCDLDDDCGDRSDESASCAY
row,% max binding [%],Binder
1,2,MegaRAP1 d3 T213S revertant (designed binder) LDRLRRVSHQGYSTEAKFEEPRVIDLWDLAQSANLTDKELEAFREELKYFKAKIEAHNHYQKQLEIAHEELRHAESVGDGERVSRSREKHALLEGRTKELGYTVKKHLQDLSGRISRAR
2,2,MegaRAP1 d3 K217E revertant (designed binder) LDRLRRVSHQGYTTEAEFEEPRVIDLWDLAQSANLTDKELEAFREELKYFKAKIEAHNHYQKQLEIAHEELRHAESVGDGERVSRSREKHALLEGRTKELGYTVKKHLQDLSGRISRAR
3,85,MegaRAP1 d3 E270K revertant (designed binder) LDRLRRVSHQGYTTEAKFEEPRVIDLWDLAQSANLTDKELEAFREELKYFKAKIEAHNHYQKQLEIAHEKLRHAESVGDGERVSRSREKHALLEGRTKELGYTVKKHLQDLSGRISRAR
4,16,"MegaRAP1 d3 K251E, E270K double revertant (designed binder) LDRLRRVSHQGYTTEAKFEEPRVIDLWDLAQSANLTDKELEAFREELKYFEAKIEAHNHYQKQLEIAHEKLRHAESVGDGERVSRSREKHALLEGRTKELGYTVKKHLQDLSGRISRAR"
5,93,"MegaRAP1 d3 A256K, E270K double revertant (designed binder) LDRLRRVSHQGYTTEAKFEEPRVIDLWDLAQSANLTDKELEAFREELKYFKAKIEKHNHYQKQLEIAHEKLRHAESVGDGERVSRSREKHALLEGRTKELGYTVKKHLQDLSGRISRAR"
6,4,"RAP d3 K270E (ligand, human, UniProt P30533 235-353, looked up, range 201-319 (mature RAP numbering); Forward mutant of m1; same construct; also called RAP K270E; not shown: N-terminal hexahistidine and S-peptide tags of pET30(+)a) LDRLRRVSHQGYSTEAEFEEPRVIDLWDLAQSANLTDKELEAFREELKHFEAKIEKHNHYQKQLEIAHEELRHAESVGDGERVSRSREKHALLEGRTKELGYTVKKHLQDLSGRISRAR"
7,4,B1
8,2,"RAP d3 K256A, K270E (ligand, human, UniProt P30533 235-353, looked up, range 201-319 (mature RAP numbering); Forward mutant of m1; same construct; also called RAP K256A, K270E; not shown: N-terminal hexahistidine and S-peptide tags of pET30(+)a) LDRLRRVSHQGYSTEAEFEEPRVIDLWDLAQSANLTDKELEAFREELKHFEAKIEAHNHYQKQLEIAHEELRHAESVGDGERVSRSREKHALLEGRTKELGYTVKKHLQDLSGRISRAR"
9,100,"RAP d3 E251K (ligand, human, UniProt P30533 235-353, looked up, range 201-319 (mature RAP numbering); Forward mutant of m1; same construct; also called RAP E251K; not shown: N-terminal hexahistidine and S-peptide tags of pET30(+)a) LDRLRRVSHQGYSTEAEFEEPRVIDLWDLAQSANLTDKELEAFREELKHFKAKIEKHNHYQKQLEIAHEKLRHAESVGDGERVSRSREKHALLEGRTKELGYTVKKHLQDLSGRISRAR"
10,4,"RAP d3 E251K, K270E (ligand, human, UniProt P30533 235-353, looked up, range 201-319 (mature RAP numbering); Forward mutant of m1; same construct; also called RAP E251K, K270E; not shown: N-terminal hexahistidine and S-peptide tags of pET30(+)a) LDRLRRVSHQGYSTEAEFEEPRVIDLWDLAQSANLTDKELEAFREELKHFKAKIEKHNHYQKQLEIAHEELRHAESVGDGERVSRSREKHALLEGRTKELGYTVKKHLQDLSGRISRAR"
11,2,"RAP d3 E251K, K256A, K270E (ligand, human, UniProt P30533 235-353, looked up, range 201-319 (mature RAP numbering); Forward mutant of m1; same construct; also called RAP E251K, K256A, K270E; not shown: N-terminal hexahistidine and S-peptide tags of pET30(+)a) LDRLRRVSHQGYSTEAEFEEPRVIDLWDLAQSANLTDKELEAFREELKHFKAKIEAHNHYQKQLEIAHEELRHAESVGDGERVSRSREKHALLEGRTKELGYTVKKHLQDLSGRISRAR"
12,91,"RAP d3 E217K (ligand, human, UniProt P30533 235-353, looked up, range 201-319 (mature RAP numbering); Forward mutant of m1; same construct; also called RAP E217K; not shown: N-terminal hexahistidine and S-peptide tags of pET30(+)a) LDRLRRVSHQGYSTEAKFEEPRVIDLWDLAQSANLTDKELEAFREELKHFEAKIEKHNHYQKQLEIAHEKLRHAESVGDGERVSRSREKHALLEGRTKELGYTVKKHLQDLSGRISRAR"
13,90,"RAP d3 H249Y (ligand, human, UniProt P30533 235-353, looked up, range 201-319 (mature RAP numbering); Forward mutant of m1; same construct; also called RAP H249Y; not shown: N-terminal hexahistidine and S-peptide tags of pET30(+)a) LDRLRRVSHQGYSTEAEFEEPRVIDLWDLAQSANLTDKELEAFREELKYFEAKIEKHNHYQKQLEIAHEKLRHAESVGDGERVSRSREKHALLEGRTKELGYTVKKHLQDLSGRISRAR"

# Molecular target: B1
# Experiment: solid-phase binding assay: LRP2 CR89 variant coated on the plate, d3 ligand in solution, anti-RAP detection, absorbance
# Experimental: as §2, with “RAP” for “Solid phase binding assays—Purified, refolded CR protein (1 μg) was bound to Nunc Maxisorp™ 96-well plates in TBS pH 8 supplemented with 5 mM CaCl₂ (TBSC) overnight at 4° C. Wells were washed with TBSC and then blocked with TBSC containing 2% bovine serum albumin (BSA). RAP”
# One premise of this work was that amino acids at A, C, A′ and C′ within the calcium-binding loops of a CR pair were key determinants of binding affinity for RAP and would be similarly important for binding of RAP variants. […] Binding to both RAP d3 and MegaRAP1 d3 were measured for each LRP2 CR89 mutant by solid-phase assay. […]
row,binding result,Binder
1,no binding (tested: 100 nM),"LRP2 CR89 Y1042W R1088D (receptor, also called WVWD; not shown: N-terminal hexahistidine and S-peptide tag stretch of pET30(+)a) PTEQCGLFSFPCKNGRCVPNYWLCDGVDDCHDNSDEQLCGTLNNTCSSSAFTCGHGECIPAHWRCDKDNDCVDGSDEHNCPTHA"
2,no binding (tested: 100 nM),"LRP2 CR89 Y1042W V1047D (receptor, also called WDWR; not shown: N-terminal hexahistidine and S-peptide tag stretch of pET30(+)a) PTEQCGLFSFPCKNGRCVPNYWLCDGDDDCHDNSDEQLCGTLNNTCSSSAFTCGHGECIPAHWRCDKRNDCVDGSDEHNCPTHA"
